Three molecules from patent publication US20060148017A1 (published 2006) can be followed below.

Data set [1] has as its system T1, Zip 1.
T1 sequence: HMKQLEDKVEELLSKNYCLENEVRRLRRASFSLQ

Data set [2] relates to T2, Zip 2.
T2 sequence: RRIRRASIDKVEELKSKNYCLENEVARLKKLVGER

For data set [3], the system named is T3, Zip4T.
T3 sequence: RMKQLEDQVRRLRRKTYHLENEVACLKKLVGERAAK

Data set [4] deals with T4, Zip4S.
T4 sequence: T3 sequence with T16S

Data set [5] concerns the molecule itself. Nature of the data set: circular dichroism thermal denaturation (self-association of unmodified Zip4S is implied). On the technique in general: Circular dichroism is widely used to follow secondary structure.
Description: The circular dichroism (measured in units of ellipticity) of proteins at 222 nm provides a measure of the amount of α-helix present in the structure, with a large, negative ellipticity indicting a high level of helicity. […] In all experiments described herein, peptide concentration was determined by tyrosine absorbance at 280 nm in 6M GuHCl.

Changes are numbered by the printed parent chain.

Take protein kinase A (PKA): the “phosphorylation by reverse-phase HPLC and radioactive assay” value in data set [1] was “The peptides were both shown to be good substrates for PKA by reverse-phase HPLC and radioactive assay”; in data set [2], “The peptides were both shown to be good substrates for PKA by reverse-phase HPLC and radioactive assay”. Further, the “timecourse of phosphorylation (32P incorporation)” value in data set [3] is “Zip4T is also phosphorylated, but at a slower rate, with full phosphorylation achieved in 30 minutes in this assay”.

“Ca2+/Calmodulin-dependent Protein Kinase (CaMKII)”: in data set [4], the “timecourse of phosphorylation (32P incorporation)” value is “CaMKII was unable to phosphorylate Zip4S”.

For the molecule RMKQLEDQVRRLRRKSYHLENEVACLKKLVGERAAK (GCN4 numbering)) [Zip4S], the binding result in data set [5] is “binds”.
